Measured values reported in publication PMC8204385 (Biophysical Journal, 2021).
Values joined by “and” are separate entries in the source; they are usually repeats but may differ in a detail not shown here. Equal entries are not always repeated.

Target: T1, human SHP-1 (Homo sapiens, UniProt P29350)
T1 construct: 6xHis (N); made in house; host or cells: Escherichia coli BL21-CodonPlus (DE3)-RIPL
Experiment: SPR-based assay for tethered SHP-1 reactions on immobilised phosphopeptides, extended MPDPDE model fit
Type: binding
Conditions: 37°C; vertical intercept of regression of L^2 vs number of PEG linkers, all data except PEG0

T1 sequence (P29350 whole entry): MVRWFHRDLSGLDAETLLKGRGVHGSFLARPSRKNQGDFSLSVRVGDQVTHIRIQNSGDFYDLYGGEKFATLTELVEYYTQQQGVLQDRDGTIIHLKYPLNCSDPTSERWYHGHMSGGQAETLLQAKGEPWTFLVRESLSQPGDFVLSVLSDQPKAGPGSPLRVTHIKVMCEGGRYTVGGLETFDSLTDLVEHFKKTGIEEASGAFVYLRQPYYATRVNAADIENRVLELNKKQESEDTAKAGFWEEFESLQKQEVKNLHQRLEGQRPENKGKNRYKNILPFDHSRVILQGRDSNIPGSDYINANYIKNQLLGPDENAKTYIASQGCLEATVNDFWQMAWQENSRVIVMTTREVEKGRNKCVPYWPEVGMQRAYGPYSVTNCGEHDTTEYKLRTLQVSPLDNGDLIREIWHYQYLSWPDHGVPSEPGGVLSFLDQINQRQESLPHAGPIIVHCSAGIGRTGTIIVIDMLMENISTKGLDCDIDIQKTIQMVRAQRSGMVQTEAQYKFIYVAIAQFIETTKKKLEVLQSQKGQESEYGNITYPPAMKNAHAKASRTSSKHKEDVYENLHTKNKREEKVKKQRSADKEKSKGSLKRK

## SHP-1: Human tyrosine phosphatase SHP-1 with an N-terminal 6× His tag produced in Escherichia coli
  molecular reach of SHP-1 (LSHP-1): 13.0 nm and 13.0 ± 0.8 nm
